# Laboratory results reported in the supplement of paper PMC6757056.
# ± gives the standard deviation of the averaged measurements.
# B1: library; a variant is named by its letters at N, in order (parent)
# chain: GCUGUCACCGAGAAACUGUGAAGUAUAUCUUAAACCUGGGCACUUAAAAGAUAUAUGGAGUUAGUAGUGCAACCUGCUCGGUCUGAUGAGUCCNNNNNNGGACGAAACAGC
# Tests used:
# cyclic di-GMP [1] = variants of: B1; assay: normalized RNA/DNA level without ligand (relative to sTRSVctl = 100) (log10 (% of sTRSVctl)); HEK293T; ligand: cyclic di-GMP (c-di-GMP-II aptamer); higher = less ribozyme self-cleavage, higher mRNA level; settings: reporter: mCherry (pCS4076), ligand present: no
# Outline: (§1)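 HEK293T cells were transfected with library plasmids carrying ribozyme switches linked to an mCherry reporter, or an eGFP reporter in some ligand experiments, at 4 µg per well of a 6-well plate, with any ligand added 1 h beforehand. After 72 h, total RNA was extracted with EDTA, reverse-transcribed, amplified, barcoded and sequenced. RNA level was defined as RNA reads over DNA reads, normalized to a spiked-in non-cleaving sequence or to the top-ranked sequences. That value was multiplied by 100 and converted to log10, the top set was 25 sequences, and only sequences with ≥100 DNA reads were retained.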
# cyclic di-GMP [2] = variants of: B1; assay: normalized RNA/DNA level with ligand (relative to sTRSVctl = 100) (log10 (% of sTRSVctl)); HEK293T; ligand: cyclic di-GMP (c-di-GMP-II aptamer); ligand concentration (+) RNA-Seq: 1 mM; higher = less ribozyme self-cleavage, higher mRNA level; settings: reporter: mCherry (pCS4076), ligand present: yes
# Outline: as §1
Variant,normalized RNA/DNA level without ligand (log10) (cyclic di-GMP [1]),normalized RNA/DNA level with ligand (log10) (cyclic di-GMP [2])
UUUUUC,1.78 ± 0.052,1.88 ± 0.14
UUUUUG,1.77 ± 0.028,1.87 ± 0.088
UUUUUU,1.77 ± 0.056,1.88 ± 0.097
UUUUUA,1.77 ± 0.038,1.92 ± 0.11
UUUUCA,1.8 ± 0.025,1.91 ± 0.12
UUUUCC,1.84 ± 0.058,1.89 ± 0.16
UUUUCU,1.78 ± 0.071,1.9 ± 0.12
GUUGAU,1.61 ± 0.033,1.76 ± 0.14
CUUGGC,1.79 ± 0.034,1.92 ± 0.085
CUUGGG,1.74 ± 0.031,1.88 ± 0.13
CUUGGU,1.76 ± 0.031,1.84 ± 0.11
GUUGGU,1.611 ± 0.011,1.77 ± 0.1
GUUGGA,1.56 ± 0.097,1.72 ± 0.077
GUUGGC,1.61 ± 0.022,1.79 ± 0.09
GUUGGG,1.6 ± 0.1,1.76 ± 0.065
CUUGAG,1.68 ± 0.017,1.79 ± 0.09
CUUGAU,1.66 ± 0.023,1.82 ± 0.13
AUUGAG,1.57 ± 0.018,1.7 ± 0.13
AUUGAU,1.63 ± 0.029,1.79 ± 0.061
GUUGUG,1.66 ± 0.09,1.82 ± 0.079
GUUGUA,1.57 ± 0.024,1.77 ± 0.1
GUUGUC,1.53 ± 0.11,1.73 ± 0.087
GUUGUU,1.67 ± 0.038,1.81 ± 0.098
CUUGCA,1.66 ± 0.018,1.77 ± 0.1
CUUGCC,1.82 ± 0.019,1.9 ± 0.077

Variant,normalized RNA/DNA level without ligand (log10) (cyclic di-GMP [1]),normalized RNA/DNA level with ligand (log10) (cyclic di-GMP [2])
CUUGCU,1.76 ± 0.021,1.86 ± 0.12
CUUGCG,1.78 ± 0.02,1.86 ± 0.12
GUUUCU,1.711 ± 0.014,1.86 ± 0.097
GUUUCG,1.71 ± 0.051,1.85 ± 0.099
GUUUCC,1.82 ± 0.07,1.88 ± 0.15
GUUUCA,1.648 ± 0.0058,1.79 ± 0.12
UUUUAU,1.7 ± 0.025,1.87 ± 0.095
UUUUAC,1.74 ± 0.055,1.87 ± 0.14
UUUUAG,1.74 ± 0.022,1.89 ± 0.065
UUUUAA,1.725 ± 0.014,1.86 ± 0.11
CUUGUG,1.73 ± 0.03,1.91 ± 0.13
CUUGUA,1.57 ± 0.044,1.77 ± 0.12
CUUGUU,1.72 ± 0.07,1.85 ± 0.12
CUUGUC,1.78 ± 0.048,1.89 ± 0.12
UUUGUG,1.72 ± 0.042,1.91 ± 0.05
UUUGUC,1.795 ± 0.011,1.9 ± 0.11
GUUUAA,1.54 ± 0.058,1.74 ± 0.086
GUUUAC,1.74 ± 0.029,1.84 ± 0.13
GUUUAG,1.59 ± 0.041,1.78 ± 0.091
AUUGCG,1.713 ± 0.012,1.83 ± 0.09
AUUGCA,1.67 ± 0.055,1.81 ± 0.095
AUUGCU,1.73 ± 0.047,1.88 ± 0.081
AUUUUA,1.62 ± 0.032,1.8 ± 0.13
AUUUUC,1.74 ± 0.024,1.85 ± 0.092
AUUUUU,1.76 ± 0.03,1.89 ± 0.075

Variant,normalized RNA/DNA level without ligand (log10) (cyclic di-GMP [1]),normalized RNA/DNA level with ligand (log10) (cyclic di-GMP [2])
AUUUUG,1.68 ± 0.045,1.81 ± 0.056
AUUGGG,1.54 ± 0.16,1.75 ± 0.078
AUUGGC,1.67 ± 0.017,1.83 ± 0.076
UUUGGA,1.65 ± 0.051,1.79 ± 0.085
UUUGGG,1.735 ± 0.0076,1.85 ± 0.074
UUUGGC,1.79 ± 0.033,1.9 ± 0.16
UUUGGU,1.73 ± 0.043,1.88 ± 0.066
UUUGCU,1.76 ± 0.057,1.88 ± 0.14
UUUGCA,1.78 ± 0.018,1.85 ± 0.1
UUUGCC,1.838 ± 0.011,1.89 ± 0.079
UUUGCG,1.78 ± 0.066,1.88 ± 0.12
AUUUAC,1.733 ± 0.0013,1.88 ± 0.1
AUUUAG,1.63 ± 0.065,1.77 ± 0.077
AUUUAU,1.74 ± 0.037,1.84 ± 0.073
UUUGAG,1.71 ± 0.038,1.83 ± 0.12
UUUGAU,1.649 ± 0.014,1.82 ± 0.12
GUUUUA,1.63 ± 0.032,1.82 ± 0.098
GUUUUC,1.69 ± 0.025,1.86 ± 0.09
AUUUGG,1.56 ± 0.032,1.77 ± 0.088
AUUUGC,1.76 ± 0.038,1.87 ± 0.12
AUUUGU,1.66 ± 0.017,1.85 ± 0.12
AUUUGA,1.51 ± 0.052,1.75 ± 0.16
CUUUGA,1.66 ± 0.019,1.79 ± 0.11
CUUUGU,1.78 ± 0.029,1.87 ± 0.049
CUUUGG,1.781 ± 0.0073,1.87 ± 0.089

Variant,normalized RNA/DNA level without ligand (log10) (cyclic di-GMP [1]),normalized RNA/DNA level with ligand (log10) (cyclic di-GMP [2])
CUUUGC,1.795 ± 0.017,1.88 ± 0.11
AUUGUU,1.59 ± 0.025,1.77 ± 0.12
AUUGUC,1.73 ± 0.053,1.85 ± 0.15
AUUGUG,1.605 ± 0.014,1.84 ± 0.11
AUUUCG,1.66 ± 0.028,1.82 ± 0.09
AUUUCC,1.79 ± 0.019,1.9 ± 0.092
AUUUCU,1.74 ± 0.06,1.87 ± 0.12
AUUUCA,1.701 ± 0.013,1.85 ± 0.12
CUUUCG,1.8 ± 0.046,1.88 ± 0.05
UUUUGA,1.74 ± 0.062,1.89 ± 0.2
UUUUGC,1.76 ± 0.045,1.85 ± 0.11
UUUUGU,1.74 ± 0.035,1.87 ± 0.15
UUUUGG,1.82 ± 0.05,1.93 ± 0.13
CUUUAU,1.58 ± 0.047,1.79 ± 0.11
CUUUAG,1.73 ± 0.095,1.84 ± 0.19
CUUUAC,1.73 ± 0.019,1.84 ± 0.1
GUUUGU,1.69 ± 0.022,1.84 ± 0.067
CUUUUG,1.796 ± 0.016,1.92 ± 0.13
CUUUUA,1.42 ± 0.12,1.66 ± 0.07
CUUUUC,1.73 ± 0.022,1.85 ± 0.12
CUUUUU,1.611 ± 0.013,1.79 ± 0.11
GUUGCA,1.81 ± 0.038,1.87 ± 0.1
GUUGCC,1.76 ± 0.013,1.87 ± 0.1
GUUGCU,1.7 ± 0.039,1.84 ± 0.1
